Columns and labels:
Assay in all cases: purified protein
Assay type in all cases: biochemical, Blastobotrys adeninivorans
[1] = test system: T1, NC(=O)C1=CN([C@@H]2O[C@H](COP(=O)(O)OP(=O)(O)OC[C@H]3O[C@@H](n4cnc5c(N)ncnc54)[C@H](O)[C@@H]3O)[C@@H](O)[C@H]2O)C=CC1; details: reduction, 20 mM acetaldehyde, 50 mM sodium phosphate pH 7.5, 30 °C, pH 7.5, varied: cofactor
T1 construct: full length, N-terminal His6 tag (MHHHHHH then VPSPDI), expressed in A. adeninivorans G1212/YIC102-6H-AADH2, Ni-NTA purified; ORF 1068 bp, 356 residues printed; native 88 kDa, dimer

CCCC=O = test system: T2, CCCC=O; details: reduction, 0.4 mM NADH, 50 mM sodium phosphate pH 7.5, 30 °C, pH 7.5
T2 construct: full length, N-terminal His6 tag (MHHHHHH then VPSPDI), expressed in A. adeninivorans G1212/YIC102-6H-AADH2, Ni-NTA purified; ORF 1068 bp, 356 residues printed; native 88 kDa, dimer

[2] = test system: T3, NC(=O)c1ccc[n+]([C@@H]2O[C@H](COP(=O)(O)OP(=O)(O)OC[C@H]3O[C@@H](n4cnc5c(N)ncnc54)[C@H](O)[C@@H]3O)[C@@H](O)[C@H]2O)c1; details: oxidation, 100 mM ethanol, 50 mM Tris-HCl pH 9.0, 30 °C, pH 9.0, varied: cofactor
T3 construct: full length, N-terminal His6 tag (MHHHHHH then VPSPDI), expressed in A. adeninivorans G1212/YIC102-6H-AADH2, Ni-NTA purified; ORF 1068 bp, 356 residues printed; native 88 kDa, dimer

CC=O = test system: T4, CC=O; details: reduction, 0.8 mM NADH, 50 mM sodium phosphate pH 7.5, 30 °C, pH 7.5
T4 construct: full length, N-terminal His6 tag (MHHHHHH then VPSPDI), expressed in A. adeninivorans G1212/YIC102-6H-AADH2, Ni-NTA purified; ORF 1068 bp, 356 residues printed; native 88 kDa, dimer

CCCCO = test system: T5, CCCCO; details: oxidation, 1 mM NAD+, 50 mM Tris-HCl pH 9.0, 30 °C, pH 9.0
T5 construct: full length, N-terminal His6 tag (MHHHHHH then VPSPDI), expressed in A. adeninivorans G1212/YIC102-6H-AADH2, Ni-NTA purified; ORF 1068 bp, 356 residues printed; native 88 kDa, dimer

## 6h-Aadh2p (Blastobotrys adeninivorans)
[1]
  Km: 70 µM
  kcat: 14.7 s⁻¹
  kcat/Km: 224000 M⁻¹ s⁻¹
CCCC=O
  Km: 500 µM
  kcat: 11900 s⁻¹
  kcat/Km: 2.37e+07 M⁻¹ s⁻¹
[2]
  Km: 500 µM
  kcat: 2.2 s⁻¹
  kcat/Km: 4000 M⁻¹ s⁻¹
CC=O
  Km: 26500 µM
  kcat: 15.2 s⁻¹
  kcat/Km: 600 M⁻¹ s⁻¹
CCCCO
  Km: 300 µM
  kcat: 1310 s⁻¹
  kcat/Km: 4.37e+06 M⁻¹ s⁻¹

Reference: paper PMC5062937, “Aadh2p: an Arxula adeninivorans alcohol dehydrogenase involved in the first step of the 1-butanol degradation pathway” (Microbial Cell Factories, 2016)
